Measured values: patent publication US20180215801A1 (BOARD OF TRUSTEES OF MICHIGAN STATE UNIVERSITY, published 2018)
Each block holds one binder with its values, some of them ahead of it.

What was measured:
[1] = molecular target: T1, Fc-free Cryptic (human Cryptic extracellular domain after removal of the Fc with TEV protease) (human, UniProt P0CG37 26-155); assay: SPR competition: 10 nM Activin B preincubated with Fc-free Cryptic, binding to captured ACTRIIA-Fc is blocked
T1 construct: Same conflict about the C-terminal limit as for Cryptic-Fc (155 vs 167)
Procedure: (§1) Receptor-ligand binding affinities were determined by SPR using the Biacore 2000. Anti-human IgG (Fc) antibody was immobilized onto four channels of a CM5 chip using amine coupling chemistry. […] A reference channel was monitored to account for nonspecific binding, drift, and bulk shifts.

[2] = molecular target: T2, ALK4-Fc (human ALK4 extracellular domain fused to human IgG1 Fc) (human, UniProt P36896 24-110); assay: SPR (Biacore 2000), Fc fusion captured on anti-human Fc chip, ligand injected, 1:1 Langmuir fit
T2 construct: range 1-110; Captured on an anti-human Fc chip in SPR; also called ALK4-hIgg-Fc; human ALK4-Fc
T2 sequence (P36896 other isoform, or with tags, fused parts or gaps limits assumed, form in doubt): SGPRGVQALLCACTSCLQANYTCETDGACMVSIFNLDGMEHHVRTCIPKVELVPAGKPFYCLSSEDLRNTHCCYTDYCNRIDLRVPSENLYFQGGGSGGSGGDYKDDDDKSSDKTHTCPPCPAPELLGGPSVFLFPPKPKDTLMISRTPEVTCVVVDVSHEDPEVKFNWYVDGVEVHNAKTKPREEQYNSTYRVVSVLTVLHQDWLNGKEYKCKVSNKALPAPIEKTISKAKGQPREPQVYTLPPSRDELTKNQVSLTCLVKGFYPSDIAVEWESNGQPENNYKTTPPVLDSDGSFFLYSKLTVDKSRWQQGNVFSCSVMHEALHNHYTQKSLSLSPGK
Procedure: (§2) Receptor-ligand binding affinities were determined by SPR using the Biacore 2000. Anti-human IgG (Fc) antibody was immobilized onto four channels of a CM5 chip using amine coupling chemistry. […] A reference channel was monitored to account for nonspecific binding, drift, and bulk shifts. […] After each binding cycle, the antibody surface was regenerated to base line. All experiments were carried out at 25° C. HBS-EPS buffer (0.01 M HEPES, […], 3 mM EDTA, 0.005% (v/v) Tween 20, pH 7.4) containing 0.1% BSA was used as running buffer. […] Sensograms were analyzed by double referencing. To obtain kinetic rate constants, the processed data was fitted to 1:1 Langmuir interaction model with mass transport limitation using Scrubber, Clamp or BiaEvaluation software. The equilibrium binding constant Kd was determined by calculating the ratio of binding rate constants kd/kₐ.

[3] = molecular target: T1, Fc-free Cryptic (human Cryptic …); assay: SPR competition: 1 nM Activin A preincubated with Fc-free Cryptic, binding to captured ACTRIIA-Fc is blocked
Procedure: as §1

[4] = molecular target: T2, ALK4-Fc (human ALK4 extracellular …); assay: SPR, ALK4-Fc captured, Activin A series preincubated with excess Fc-free Cryptic injected
Procedure: as §2

- binding result [1]: binds
B1: Activin B (ligand, UniProt P09529 293-407, looked up)
chain: GLECDGRTNLCCRQQFFIDFRLIGWNDWIIAPTGYYGNYCEGSCPAYLAGVPGSASSFHTAVVNQYRMRGLNPGTVNSCCIPTKLSTMSMLYFDDEYNIVKRDVPNMIVEECGCA
notes: also called recombinant Activin B

- Kd [2]: 4 nM
- koff [2]: 0.0018 s⁻¹
- kon [2]: 450000 M⁻¹ s⁻¹
- binding result [3]: binds
B2: Activin A (ligand)
chain: GLECDGKVNICCKKQFFVSFKDIGWNDWIIAPSGYHANYCEGECPSHIAGTSGSSLSFHSTVINHYRMRGHSPFANLKSCCVPTKLRPMSMLYYDDGQNIIKKDIQNMIVEECGCS
notes: also called homodimer of inhibin beta A subunits

- Kd [4]: 2.6 nM
- koff [4]: 0.0016 s⁻¹
- kon [4]: 620000 M⁻¹ s⁻¹
B3: Activin A/Cryptic complex (Activin A preincubated with excess Fc-free Cryptic) (other)
chain 1: GLECDGKVNICCKKQFFVSFKDIGWNDWIIAPSGYHANYCEGECPSHIAGTSGSSLSFHSTVINHYRMRGHSPFANLKSCCVPTKLRPMSMLYYDDGQNIIKKDIQNMIVEECGCS
chain 2: not shown
